Values quoted from earlier work, collected in PMC11076006.

Biological target: TLR4 (Homo sapiens) (UniProt O00206)
UniProt O00206, sequence (O00206 24-839): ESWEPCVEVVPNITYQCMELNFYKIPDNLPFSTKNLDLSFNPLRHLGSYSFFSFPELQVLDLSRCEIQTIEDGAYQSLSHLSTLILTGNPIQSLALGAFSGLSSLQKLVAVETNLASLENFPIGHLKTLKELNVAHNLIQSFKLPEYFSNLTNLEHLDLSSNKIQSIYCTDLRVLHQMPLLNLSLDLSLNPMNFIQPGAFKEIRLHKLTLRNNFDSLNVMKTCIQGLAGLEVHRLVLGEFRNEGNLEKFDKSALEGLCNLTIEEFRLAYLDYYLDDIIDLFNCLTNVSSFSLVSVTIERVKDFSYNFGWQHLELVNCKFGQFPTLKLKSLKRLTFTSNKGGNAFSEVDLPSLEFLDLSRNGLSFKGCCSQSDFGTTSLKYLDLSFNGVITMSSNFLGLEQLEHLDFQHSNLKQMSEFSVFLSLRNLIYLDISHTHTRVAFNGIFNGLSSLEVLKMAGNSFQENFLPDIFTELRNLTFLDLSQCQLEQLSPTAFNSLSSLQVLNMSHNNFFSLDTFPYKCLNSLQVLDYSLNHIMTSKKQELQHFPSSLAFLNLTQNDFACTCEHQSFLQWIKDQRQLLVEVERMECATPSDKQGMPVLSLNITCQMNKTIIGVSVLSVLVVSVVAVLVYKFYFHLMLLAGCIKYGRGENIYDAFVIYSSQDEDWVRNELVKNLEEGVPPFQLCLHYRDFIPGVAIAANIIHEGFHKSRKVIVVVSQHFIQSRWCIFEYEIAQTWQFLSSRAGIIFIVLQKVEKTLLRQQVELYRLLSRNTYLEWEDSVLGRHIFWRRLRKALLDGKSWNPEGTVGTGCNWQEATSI

Kd: 3.2 nM
Substance: S100A9 (from UniProt P06702)
